Source: patent publication US20180155451A1 (published 2018)

T1: FcγRIIb (human, UniProt P31994 43-217)
T1 construct: extracellular domain; also called FcgRIIb; 2b
T1 sequence (looked up): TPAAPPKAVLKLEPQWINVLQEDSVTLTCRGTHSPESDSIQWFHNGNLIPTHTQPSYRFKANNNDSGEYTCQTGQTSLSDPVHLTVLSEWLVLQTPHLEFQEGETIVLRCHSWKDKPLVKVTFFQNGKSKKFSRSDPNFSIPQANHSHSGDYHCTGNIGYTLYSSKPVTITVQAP


How the values were obtained:
[1] = target: T2, FcγRIa (human, UniProt P12314 16-292); test: SPR, captured antibody; relative to GpH7-A5/GpH7-B3/GpL16-k0
T2 construct: extracellular domain; also called FcgRI; 1a

[2] = target: T1, FcγRIIb; test: as above

T2 sequence (P12314 16-292): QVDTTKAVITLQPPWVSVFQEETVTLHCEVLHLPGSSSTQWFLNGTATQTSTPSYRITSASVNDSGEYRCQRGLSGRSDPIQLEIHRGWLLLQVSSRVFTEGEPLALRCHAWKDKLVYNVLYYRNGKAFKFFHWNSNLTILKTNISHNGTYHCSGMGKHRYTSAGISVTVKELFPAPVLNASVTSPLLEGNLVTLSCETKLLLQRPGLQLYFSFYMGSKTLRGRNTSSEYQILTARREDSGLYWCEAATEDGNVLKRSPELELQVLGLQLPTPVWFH

Binder	He/Con_1a [1]	He/Con_2b [2]
GpH7-A5/GpH7-B3 variant (E269_18N)/GpL16-k0 (antibody, human IgG1, kappa, IgG1 heterodimer, mutation in the GpH7-B3 chain only; also called He Ab) heavy 1: not shown heavy 2: not shown light: DIVMTQSPLSLPVTPGEPASISCQASESLVHSNRNTYLHWYLQKPGQSPQLLIYKVSNRFSGVPDRFSGSGSGTDFTLKISRVEAEDVGVYYCSQNTHVPPTFGQGTKVEIERTVAAPSVFIFPPSDEQLKSGTASVVCLLNNFYPREAKVQWKVDNALQSGNSQESVTEQDSKDSTYSLSSTLTLSKADYEKHKVYACEVTHQGLSSPVTKSFNRGEC	102 relative, HeCon Ab = 100	44.8 relative, HeCon Ab = 100
GpH7-A5/GpH7-B3 variant (E269_05P)/GpL16-k0 (antibody, human IgG1, kappa, IgG1 heterodimer, mutation in the GpH7-B3 chain only; also called He Ab) heavy 1: not shown heavy 2: not shown light: DIVMTQSPLSLPVTPGEPASISCQASESLVHSNRNTYLHWYLQKPGQSPQLLIYKVSNRFSGVPDRFSGSGSGTDFTLKISRVEAEDVGVYYCSQNTHVPPTFGQGTKVEIERTVAAPSVFIFPPSDEQLKSGTASVVCLLNNFYPREAKVQWKVDNALQSGNSQESVTEQDSKDSTYSLSSTLTLSKADYEKHKVYACEVTHQGLSSPVTKSFNRGEC	102 relative, HeCon Ab = 100	52.6 relative, HeCon Ab = 100
GpH7-A5/GpH7-B3 variant (G236_02A)/GpL16-k0 (antibody, human IgG1, kappa, IgG1 heterodimer, mutation in the GpH7-B3 chain only; also called He Ab) heavy 1: not shown heavy 2: not shown light: DIVMTQSPLSLPVTPGEPASISCQASESLVHSNRNTYLHWYLQKPGQSPQLLIYKVSNRFSGVPDRFSGSGSGTDFTLKISRVEAEDVGVYYCSQNTHVPPTFGQGTKVEIERTVAAPSVFIFPPSDEQLKSGTASVVCLLNNFYPREAKVQWKVDNALQSGNSQESVTEQDSKDSTYSLSSTLTLSKADYEKHKVYACEVTHQGLSSPVTKSFNRGEC	100 relative, HeCon Ab = 100	96.5 relative, HeCon Ab = 100
GpH7-A5/GpH7-B3 variant (G236_07I)/GpL16-k0 (antibody, human IgG1, kappa, IgG1 heterodimer, mutation in the GpH7-B3 chain only; also called He Ab) heavy 1: not shown heavy 2: not shown light: DIVMTQSPLSLPVTPGEPASISCQASESLVHSNRNTYLHWYLQKPGQSPQLLIYKVSNRFSGVPDRFSGSGSGTDFTLKISRVEAEDVGVYYCSQNTHVPPTFGQGTKVEIERTVAAPSVFIFPPSDEQLKSGTASVVCLLNNFYPREAKVQWKVDNALQSGNSQESVTEQDSKDSTYSLSSTLTLSKADYEKHKVYACEVTHQGLSSPVTKSFNRGEC	87.5 relative, HeCon Ab = 100	31 relative, HeCon Ab = 100
GpH7-A5/GpH7-B3 variant (G236_03V)/GpL16-k0 (antibody, human IgG1, kappa, IgG1 heterodimer, mutation in the GpH7-B3 chain only; also called He Ab) heavy 1: not shown heavy 2: not shown light: DIVMTQSPLSLPVTPGEPASISCQASESLVHSNRNTYLHWYLQKPGQSPQLLIYKVSNRFSGVPDRFSGSGSGTDFTLKISRVEAEDVGVYYCSQNTHVPPTFGQGTKVEIERTVAAPSVFIFPPSDEQLKSGTASVVCLLNNFYPREAKVQWKVDNALQSGNSQESVTEQDSKDSTYSLSSTLTLSKADYEKHKVYACEVTHQGLSSPVTKSFNRGEC	89.9 relative, HeCon Ab = 100	35.3 relative, HeCon Ab = 100
GpH7-A5/GpH7-B3 variant (G236_04F)/GpL16-k0 (antibody, human IgG1, kappa, IgG1 heterodimer, mutation in the GpH7-B3 chain only; also called He Ab) heavy 1: not shown heavy 2: not shown light: DIVMTQSPLSLPVTPGEPASISCQASESLVHSNRNTYLHWYLQKPGQSPQLLIYKVSNRFSGVPDRFSGSGSGTDFTLKISRVEAEDVGVYYCSQNTHVPPTFGQGTKVEIERTVAAPSVFIFPPSDEQLKSGTASVVCLLNNFYPREAKVQWKVDNALQSGNSQESVTEQDSKDSTYSLSSTLTLSKADYEKHKVYACEVTHQGLSSPVTKSFNRGEC	96.4 relative, HeCon Ab = 100	39.3 relative, HeCon Ab = 100
GpH7-A5/GpH7-B3 variant (E269_20W)/GpL16-k0 (antibody, human IgG1, kappa, IgG1 heterodimer, mutation in the GpH7-B3 chain only; also called He Ab) heavy 1: not shown heavy 2: not shown light: DIVMTQSPLSLPVTPGEPASISCQASESLVHSNRNTYLHWYLQKPGQSPQLLIYKVSNRFSGVPDRFSGSGSGTDFTLKISRVEAEDVGVYYCSQNTHVPPTFGQGTKVEIERTVAAPSVFIFPPSDEQLKSGTASVVCLLNNFYPREAKVQWKVDNALQSGNSQESVTEQDSKDSTYSLSSTLTLSKADYEKHKVYACEVTHQGLSSPVTKSFNRGEC	105 relative, HeCon Ab = 100	42.5 relative, HeCon Ab = 100
GpH7-A5/GpH7-B3 variant (E269_06M)/GpL16-k0 (antibody, human IgG1, kappa, IgG1 heterodimer, mutation in the GpH7-B3 chain only; also called He Ab) heavy 1: not shown heavy 2: not shown light: DIVMTQSPLSLPVTPGEPASISCQASESLVHSNRNTYLHWYLQKPGQSPQLLIYKVSNRFSGVPDRFSGSGSGTDFTLKISRVEAEDVGVYYCSQNTHVPPTFGQGTKVEIERTVAAPSVFIFPPSDEQLKSGTASVVCLLNNFYPREAKVQWKVDNALQSGNSQESVTEQDSKDSTYSLSSTLTLSKADYEKHKVYACEVTHQGLSSPVTKSFNRGEC	104 relative, HeCon Ab = 100	46.7 relative, HeCon Ab = 100
GpH7-A5/GpH7-B3 variant (E269_14T)/GpL16-k0 (antibody, human IgG1, kappa, IgG1 heterodimer, mutation in the GpH7-B3 chain only; also called He Ab) heavy 1: not shown heavy 2: not shown light: DIVMTQSPLSLPVTPGEPASISCQASESLVHSNRNTYLHWYLQKPGQSPQLLIYKVSNRFSGVPDRFSGSGSGTDFTLKISRVEAEDVGVYYCSQNTHVPPTFGQGTKVEIERTVAAPSVFIFPPSDEQLKSGTASVVCLLNNFYPREAKVQWKVDNALQSGNSQESVTEQDSKDSTYSLSSTLTLSKADYEKHKVYACEVTHQGLSSPVTKSFNRGEC	106 relative, HeCon Ab = 100	50.6 relative, HeCon Ab = 100
GpH7-A5/GpH7-B3 variant (E269_04F)/GpL16-k0 (antibody, human IgG1, kappa, IgG1 heterodimer, mutation in the GpH7-B3 chain only; also called He Ab) heavy 1: not shown heavy 2: not shown light: DIVMTQSPLSLPVTPGEPASISCQASESLVHSNRNTYLHWYLQKPGQSPQLLIYKVSNRFSGVPDRFSGSGSGTDFTLKISRVEAEDVGVYYCSQNTHVPPTFGQGTKVEIERTVAAPSVFIFPPSDEQLKSGTASVVCLLNNFYPREAKVQWKVDNALQSGNSQESVTEQDSKDSTYSLSSTLTLSKADYEKHKVYACEVTHQGLSSPVTKSFNRGEC	103 relative, HeCon Ab = 100	45 relative, HeCon Ab = 100
